The labels stand for the following.
B1: Full-length human MCAK-his6-EGFP (wild type) (natural protein)
chain: MAMDSSLQARLFPGLAIKIQRSNGLIHSANVRTVNLEKSCVSVEWAEGGATKGKEIDFDDVAAINPELLQLLPLHPKDNLPLQENVTIQKQKRRSVNSKIPAPKESLRSRSTRMSTVSELRITAQENDMEVELPAAANSRKQFSVPPAPTRPSCPAVAEIPLRMVSEEMEEQVHSIRGSSSANPVNSVRRKSCLVKEVEKMKNKREEKKAQNSEMRMKRAQEYDSSFPNWEFARMIKEFRATLECHPLTMTDPIEEHRICVCVRKRPLNKQELAKKEIDVISIPSKCLLLVHEPKLKVDLTKYLENQAFCFDFAFDETASNEVVYRFTARPLVQTIFEGGKATCFAYGQTGSGKTHTMGGDLSGKAQNASKGIYAMASRDVFLLKNQPCYRKLGLEVYVTFFEIYNGKLFDLLNKKAKLRVLEDGKQQVQVVGLQEHLVNSADDVIKMIDMGSACRTSGQTFANSNSSRSHACFQIILRAKGRMHGKFSLVDLAGNERGADTSSADRQTRMEGAEINKSLLALKECIRALGQNKAHTPFRESKLTQVLRDSFIGENSRTCMIATISPGISSCEYTLNTLRYADRVKELSPHSGPSGEQLIQMETEEMEACSNGALIPGNLSKEEEELSSQMSSFNEAMTQIRELEEKAMEELKEIIQQGPDWLELSEMTEQPDYDLETFVNKAESALAQQAKHFSALRDVIKALRLAMQLEEQASRQISSKKRPQ
B2: Full-length human MCAK-his6-EGFP E525A (natural protein)
chain: B1 chain with E525A
B3: Full-length human MCAK-his6-EGFP R528A (natural protein)
chain: B1 chain with R528A
B4: Full-length human MCAK-his6-EGFP K524A (natural protein)
chain: B1 chain with K524A

Positions count from the first letter of the chain named. Names and notes keep the numbering of the source.

In the first experiment the target is GMPCPP-stabilized microtubules of porcine brain tubulin (porcine) (UniProt P02550).
Sequence of UniProt P02550 (P02550 whole entry, looked up): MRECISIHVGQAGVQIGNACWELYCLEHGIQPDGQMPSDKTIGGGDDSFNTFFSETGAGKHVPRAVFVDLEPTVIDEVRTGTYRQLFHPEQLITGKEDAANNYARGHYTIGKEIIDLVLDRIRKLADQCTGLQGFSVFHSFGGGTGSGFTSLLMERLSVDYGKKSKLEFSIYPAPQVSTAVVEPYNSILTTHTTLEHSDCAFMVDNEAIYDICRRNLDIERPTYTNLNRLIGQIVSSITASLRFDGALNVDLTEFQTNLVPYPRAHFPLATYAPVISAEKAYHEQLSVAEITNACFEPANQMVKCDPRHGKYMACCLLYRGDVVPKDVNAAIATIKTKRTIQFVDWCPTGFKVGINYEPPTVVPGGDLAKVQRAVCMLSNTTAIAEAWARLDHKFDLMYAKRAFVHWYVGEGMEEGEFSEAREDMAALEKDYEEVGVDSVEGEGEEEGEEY
Test: not given
As to B1, the depolymerization rate of individual GMPCPP microtubules with 40 nM MCAK amounted to 2.12 μm min^−1 and the microtubule-stimulated ATPase (0.1 µM MCAK, 10 µM GMPCPP-stabilized microtubules) was determined as 3.16 s⁻¹.
In the same order, the values of B2 are 0.1 μm min^−1 and 0.16 s⁻¹.
The molecule B3 yielded a depolymerization rate of individual GMPCPP microtubules with 40 nM MCAK of 0.29 μm min^−1 and a microtubule-stimulated ATPase (0.1 µM MCAK, 10 µM GMPCPP-stabilized microtubules) of 0.66 s⁻¹.
In the same order, the values of B4 are 0.13 μm min^−1 and 0.72 s⁻¹.

The target of another experiment is Unpolymerized GDP-tubulin (porcine brain) (porcine) (UniProt P02550).
Test: not given
For B1, the tubulin-stimulated ATPase (0.1 µM MCAK, 10 µM unpolymerized GDP-tubulin) was determined as 0.204 s⁻¹.
Still for that read-out and setting: then B2, with 0.195 s⁻¹; and B3, with 0.205 s⁻¹.
In the case of B4, the tubulin-stimulated ATPase (0.1 µM MCAK, 10 µM unpolymerized GDP-tubulin) worked out at 0.184 s⁻¹.

In the next experiment the target is GMPCPP-stabilized microtubules of porcine brain tubulin (porcine) (UniProt P02550). In words: single-molecule TIRF microscopy; rhodamine-labelled GMPCPP-stabilized microtubules stuck onto the flow-chamber surface; 1–6 nM MCAK-GFP or GFP-labelled mutant in BRB20 pH 6.9, 75 mM KCl, 1 mM ATP, 0.05% Tween 20, 0.1 mg/ml BSA; 25°C; duration of GFP events at the microtubule end and on the lattice measured from kymographs.
B1 yielded a microtubule-end residence time of 2.03 s and a percent of microtubule end interaction events longer than 2 s of 31.5%.
As to B2, the microtubule-end residence time was 0.59 s and the percent of microtubule end interaction events longer than 2 s is 0.9%.
Molecule B3 registered a microtubule-end residence time of 0.65 s and a percent of microtubule end interaction events longer than 2 s of 0%.
In the same order, the values of B4 are 0.59 s and 0%.

Source of the values: publication PMC5090061.
